One experiment deals with kallikrein (UniProt P03952 20-638, limits assumed). Nature of the experiment: cell-based or functional assay.
The target in experiment [1] is T1, MDM2 (res 2-125) (UniProt Q00987 2-125).
T1 construct: range 2-125; Titrant in the fluorescence anisotropy experiments
The experiment in a line: fluorescence anisotropy.

Experiment [2] deals with T1, MDM2 (res 2-125). Nature of the experiment: fluorescence anisotropy titration (intrinsic Trp fluorescence), 23 C, PBS, 5 mM DTT.
Experimental: (§1) Titration experiments were run on a Horiba Jobin Yvon fluorimeter equipped with the Hamilton Microlab titrator controlled by laboratory software. The λₑₓ and λₑₘ used were 295 nm and 350 nm, respectively. The slit widths for excitation and emission were 5 nm and 15 nm and the integration time 1 Os was used for each measurement. […] The experiments were performed at 23° C. in PBS, 5 mM DTT. […] Titration data were analyzed with a standard 1:1 binding model by using the quadratic solution to the equilibrium Kd=[A][B]/[AB]. […] The fitting equation contained an extra term to account for linear drift.
Experiment [3] has as its target T1, MDM2 (res 2-125). Nature of the experiment: fluorescence anisotropy titration, excitation 295 nm, 23 C, PBS, 5 mM DTT.
Experimental: as §1
For experiment [4], the target named is T1, MDM2 (res 2-125). The experiment in a line: fluorescence anisotropy titration, excitation 280 nm, 23 C, PBS, 5 mM DTT.

*1 amine or outer side, *2 acyl side, *3 side chain or, on linkers, in order; H or OH if unused. Bridges are numbered along the chain shown (N, C = ends). Where no end group is shown, it is not given here. tris(bromomethyl)mesitylene = scaffold as named in the source, Cc1c(C[*:1])c(C)c(C[*:3])c(C)c1C[*:2]; THME(IAc3) = trishydroxymethylethane trisiodoacetate, CC(COC(=O)C[*:1])(COC(=O)C[*:2])COC(=O)C[*:3]; TBMB = c1c(C[*:1])cc(C[*:3])cc1C[*:2]

Experimental findings from US20170067045A1 (Bicycle, published 2017) are described below.

Sequence of kallikrein (P03952 20-638 limits assumed): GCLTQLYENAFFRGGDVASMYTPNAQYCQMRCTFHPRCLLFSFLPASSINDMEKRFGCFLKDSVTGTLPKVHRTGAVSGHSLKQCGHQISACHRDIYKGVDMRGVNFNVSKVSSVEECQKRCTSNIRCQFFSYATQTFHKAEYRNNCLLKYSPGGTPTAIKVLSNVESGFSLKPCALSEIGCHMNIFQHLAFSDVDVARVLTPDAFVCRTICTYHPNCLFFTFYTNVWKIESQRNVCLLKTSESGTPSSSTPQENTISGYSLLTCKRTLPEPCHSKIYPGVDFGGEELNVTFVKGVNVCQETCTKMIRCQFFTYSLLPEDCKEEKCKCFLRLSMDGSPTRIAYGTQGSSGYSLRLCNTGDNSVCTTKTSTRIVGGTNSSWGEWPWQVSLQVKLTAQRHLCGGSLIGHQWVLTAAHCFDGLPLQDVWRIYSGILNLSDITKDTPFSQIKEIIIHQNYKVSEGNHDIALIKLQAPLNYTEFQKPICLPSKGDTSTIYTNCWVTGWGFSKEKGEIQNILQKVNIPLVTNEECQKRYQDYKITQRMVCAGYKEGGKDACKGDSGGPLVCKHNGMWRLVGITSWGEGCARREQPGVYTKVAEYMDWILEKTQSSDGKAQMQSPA
T1 sequence (Q00987 2-125 limits assumed): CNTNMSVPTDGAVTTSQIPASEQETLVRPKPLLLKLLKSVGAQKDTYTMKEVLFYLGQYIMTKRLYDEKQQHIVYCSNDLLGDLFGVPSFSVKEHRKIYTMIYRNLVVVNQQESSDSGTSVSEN

B1: oxidized PK15-TBMB (sulphoxides, +3 oxygen atoms) (peptide)
peptide: ACSDRFRNCPADEALCG
modifications: linker 2-9-16 via TBMB; also: thioether links to TBMB oxidised to sulphoxides (stereoisomer mixture)
Take B1: in the experiment with kallikrein, the “IC50 of inhibition of kallikrein (Z-Phe-Arg-AMC substrate, fluorescence)” value was around 2.4 µM.
The same measure, in the same setting: for ACSDRFRNCPADEALCG (linker 2-9-16 via tris(bromoethyl)mesitylene) [PK15 conjugated with tris(bromoethyl)mesitylene] the value was around 0.4 µM.

B2: PEP48-3s1 conjugated with THME(IAc3), HPLC peak / stereoisomer with affinity 640 nM (peptide)
peptide: SDDCVRFGWTCPTVMCG
modifications: linker 4-11-16 via THME(IAc3); also: one of two stereoisomers (HPLC peaks), not assigned
notes: One of two HPLC peaks of identical mass (expected stereoisomers); also called PEP48-3s1-THME(IAc3)
Usually Kd stands for a measure of binding affinity in units of concentration. As for B2, in the experiment with MDM2 (res 2-125) [1], the equilibrium dissociation constant (Kd) came out at 0.64 µM.

B3: PEP48 synthetic peptide conjugated with TBMB (peptide)
peptide: H-SCVRFGWTCDNSWHGCKG-OH
modifications: linker 2-9-16 via TBMB
notes: The anisotropy paragraph says only 'peptides 10, 48'; also called peptide 48
On to B3, for which the Kd in the experiment with MDM2 (res 2-125) [2] was 0.25 to 0.75 µM; with MDM2 (res 2-125) [3], 0.567 µM; with MDM2 (res 2-125) [4], 0.76 µM.
As for ACSDRFRNMPADEALCG (both cysteines and the single methionine conjugated to TBMB) [PK15 with central cysteine altered to methionine, TBMB conjugate, second of two HPLC products], the “IC50 of inhibition of kallikrein activity” value in the experiment with kallikrein is above 10 µM.

B4: PEP48-3s1 conjugate (TBMB) (peptide)
peptide: SDDCVRFGWTCPTVMCG
modifications: linker 4-11-16 via TBMB
notes: PEP48 derivative with the second loop re-selected
With B4, the Kd in the experiment with MDM2 (res 2-125) [1] was in the range of 0.027 to 0.1 µM.

B5: PEP10 synthetic peptide conjugated with TBMB (peptide)
peptide: H-SCELWNPKCRLSPFECKG-OH
modifications: linker 2-9-16 via TBMB
notes: The anisotropy paragraph says only 'peptides 10, 48'; also called peptide 10
For the molecule B5, the Kd with MDM2 (res 2-125) [2] was 0.25 to 0.75 µM; in the experiment with MDM2 (res 2-125) [3], 0.267 µM.
Regarding ACSDRFRNCPADEALCG (linker 2-9-16 via TBMB) [PK15-TBMB], the “IC50 of inhibition of kallikrein (Z-Phe-Arg-AMC substrate, fluorescence)” value with kallikrein was 0.013 µM.
The same measure, in the same setting: for ACSDRFRNCPADEALCG (linker 2-9-16 via tris(bromomethyl)mesitylene) [PK15 conjugated with tris(bromomethyl)mesitylene] the value was 0.15 µM; for ACSDRFRNCPADEALCG (linker 2-9-16 via TBMB; also: thioether links to TBMB oxidised to sulphones) [oxidized PK15-TBMB (sulphone)], 1.3 µM.
ACSDRFRNMPADEALCG (both cysteines and the single methionine conjugated to TBMB) [PK15 with central cysteine altered to methionine, TBMB conjugate, first of two HPLC products]: in the experiment with kallikrein, the “IC50 of inhibition of kallikrein activity” value was above 10 µM.

B6: PEP48-3s1 conjugated with THME(IAc3), HPLC peak / stereoisomer with affinity 1600 nM (peptide)
peptide: SDDCVRFGWTCPTVMCG
modifications: linker 4-11-16 via THME(IAc3); also: one of two stereoisomers (HPLC peaks), not assigned
notes: The other of two HPLC peaks of identical mass (expected stereoisomers); also called PEP48-3s1-THME(IAc3)
As to B6, binding with MDM2 (res 2-125) [1] was put at a Kd of 1.6 µM.
